In patent US6716574B2, “Osp-C derived peptide fragments” (Dako A/S, priority 1996, dated 2004):

Experiments:
Assay type in all cases: binding, human
[1] = tested on: IgM in serum from a patient with established neuroborreliosis; assay: Western blot with the decapeptide as serodiagnostic test antigen; conditions: 10 ug peptide on nitrocellulose, NB serum 1:100, preliminary experiments
Experimental: After three further washes in TRIS buffered saline with Tween, antibody reactive peptide was detected with alkaline phosphatase-coupled rabbit anti-human immune globulin M (DAKO, Denmark; cat. no. 337). The conjugate was diluted 1:1000 in TRIS buffered saline with 1% BSA and the NC membrane was incubated with colour substrate (BCIP and NBT; 1:500) for 10 minutes.

[2] = tested on: IgG antibodies in Lyme borreliosis sera; assay: IgG antibodies to the C-terminal decapeptide in Lyme borreliosis sera
[3] = tested on: IgG reactive with OspC in patient sera; assay: IgG rOspC ELISA combined with IgG flagellum ELISA
[4] = tested on: IgM antibodies to OspC in sera from patients; assay: Indirect ELISA for IgM antibodies to full-length and truncated recombinant OspC (rOspC ELISA); conditions: for frequency (%) of positive sera, rOspCfl ELISA: IgM; for diagnostic sensitivity for IgM: set of preliminary tests
Experimental: Indirect ELISA for IgM Antibodies to Full-length and Truncated Recombinant OspC (rOspC ELISA)
Flat-bottom microdilution plates (Maxisorb; Nunc, Roskilde, Denmark) were coated with 100 μl of rOspC diluted in 0.05 M bicarbonate pH 9.6 for 1 hour at 20° C. on a rocker platform and thereafter overnight at 4° C. The optimum coating concentration was defined as the antigen dilution resulting in the highest ratio of the optical density (OD) between a positive and a negative control serum (P/N ratio). The plates were washed four times à one minute with PBS containing 0.5 M NaCL, and 0.1% (vol/vol) Tween 20 (pH 7.2) and unspecific protein binding was blocked with 100 μl 3% (wt/vol) milk powder in PBS for 1 hour. The plates were washed four times à one minute with PBS containing 0.5 M NaCL, and 0.1% (vol/vol) Tween 20 (pH 7.2). 100 μl of serum diluted 1:200 in PBS containing 0.1% (vol/vol) Tween 20, 0.02% NaN3 and 1% (wt/vol) milk powder was added to the wells and incubated for 2 h at 20° C. The plates were washed four times à one minute with PBS containing 0.5 M NaCL, and 0.1% (vol/vol) Tween 20 (pH 7.2) and 100 μl peroxidase conjugated rabbit anti-human immunoglobulin M (IgM) (Dakopats, Copenhagen, Denmark, code P-215) diluted 1:1000 in PBS pH 7.4 with 0.05% (vol/vol) Tween 20 and 1% (wt/vol) milk powder. After the incubation for 1 h at 20° C. the plates were washed four times à one minute with PBS containing 0.5 M NaCL, and 0.1% (vol/vol) Tween 20 (pH 7.2) and 200 μl of the substrate o-phenylenediamine (0.41 mg/ml; Sigma) in citrate buffer (pH 5) with 0.04% (vol/vol) H2O2) was added to each well. After 15 minutes protected from light, the enzymatic reaction was stopped by the addition of 50 μl of 3M H2SO4. The optical density (OD) at 492 nm was read spectrophotometrically (Immuno Reader, Easy reader EAR 400 AC—SLT Labinstruments, AUSTRIA). Samples were tested in duplicate and retested, if the two OD values differed more than 10% from the mean. To eliminate plate-to-plate and day-to-day variations, a reference serum pool based on seven western blot positive sera were included on every plate for construction of a standard dilution curve with a two fold dilution ranging from 1:200 to 1:6400. The OD value of every sample was adjusted to this standard curve. Positive and negative control sera were included on every plate. The positive control sera were diluted 1:200, 1:400 and 1:800 on every plate to check for parallelism between the standard reference curve and the dilution curve of the positive control sera.
The diagnostic cutoff OD was adjusted to be 98% specific for an IgM assay on the basis of serum samples from 100 healthy danish blood donors, and was 0.230 for the IgM assay.
In a preliminary setup, rOspCt was used in the above-described rOspC ELISA. Sera from 47 patients with EM, 50 with NB, 30 with ACA and 29 with syphilis were tested against rOspCt.
The capability of an immunological agent according to the present invention to react with sera from patients in various stages of Lyme borreliosis was evaluated against that of recombinant OspC derived from B. garinii and against conventional flagellum ELISAs (performed as described in Hansen K. et al. (1991) and Hansen K. et al. (1988)). These flagellum assays (testing for IgM and IgG antibodies to native B. burgdorferi flagellum) are commercially available, a μ-capture ELISA (DAKO, Denmark code K006), and an indirect IgG ELISA (DAKO, Denmark code K416). Both assays use flagella purified from strain DK1 belonging to the genospecies of B. afzelii. The ELISAs were performed according to the instructions of the manufacturer, and the results were expressed as optical density (OD) values. In both assays the diagnostic cut-off level was adjusted to a specificity of 98% based on the examination of 100 blood donors.

NH2-Pro-Val-Val-Ala-Glu-Ser-Pro-Lys-Lys-Pro-COOH (H-PVVAESPKKP-OH; listed as Borrelia garinii) [SEQ ID NO: 1, C-terminal decapeptide of B. burgdorferi sensu lato OspC]
usability as serodiagnostic test antigen in western blot [1]: can be used as a serodiagnostic test antigen
Lyme borreliosis sera comprising IgG antibodies to the peptide [2]: only few

B1: rOspCfl: full-length recombinant OspC from Borrelia garinii strain DK6 (SEQ ID NO: 3), six-His fusion protein (protein, listed as Borrelia garinii)
chain: MKKNTLSAILMTLFLFISCNNSGGDSASTNPDESAKGPNLTVISKKITDSNAFLLAVKEVEALLSSIDELSKAIGKKIKNDGTLDNEANRNESLIAGAYEISKLITQKLSVLNSEELKEKIKEAKDCSEKFTTKLKDSHAELGIQSVQDDNAKKAILKTHGTKDKGAKELEELFKSLESLSKAAQAALTNSVKELTNPVVAESPKKP
modifications: six-His tag
improvement on adding IgG rOspC ELISA results to IgG flagellum ELISA results [3]: no significant improvement
frequency (%) of positive sera, rOspCfl ELISA ([4]; EM sera (n = 80), B. garinii rOspCfl, cutoff OD 0.230): n = 45 (43.8%)
rOspCfl IgM negative and Flagellum IgM negative ([4]; EM, n = 80): n = 38 (47.50%)
rOspCfl IgM negative and Flagellum IgM positive ([4]; EM, n = 80): n = 7 (8.75%)
rOspCfl IgM positive and Flagellum IgM negative ([4]; EM, n = 80): n = 12 (15.00%)
rOspCfl IgM positive and Flagellum IgM positive ([4]; EM, n = 80): n = 23 (28.75%)
rOspCfl IgM negative ([4]; EM, n = 80, all sera): n = 45 (56.25%)
rOspCfl IgM positive ([4]; EM, n = 80, all sera): n = 35 (43.75%)
frequency (%) of positive sera, rOspCfl ELISA ([4]; Early Lyme borreliosis (EM and NB) sera (n = 181)): n = 94 (46.4%)
frequency (%) of positive sera, rOspCfl ELISA ([4]; NB sera (n = 101), B. garinii rOspCfl): n = 49 (48.5%)
rOspCfl IgM negative and Flagellum IgM negative ([4]; NB, n = 101): n = 25 (24.75%)
rOspCfl IgM negative and Flagellum IgM positive ([4]; NB, n = 101): n = 26 (25.74%)
rOspCfl IgM positive and Flagellum IgM negative ([4]; NB, n = 101): n = 12 (11.88%)
rOspCfl IgM positive and Flagellum IgM positive ([4]; NB, n = 101): n = 37 (36.63%)
rOspCfl IgM negative ([4]; NB, n = 101, all sera): n = 52 (51.5%)
rOspCfl IgM positive ([4]; NB, n = 101, all sera): n = 49 (48.5%)
increase of overall diagnostic sensitivity for IgM when adding rOspCfl ELISA results to flagellum ELISA results ([4]; first stage of Lyme borreliosis (EM)): 15%
diagnostic sensitivity for IgM ([4]; first stage of Lyme borreliosis): 44%
increase of overall diagnostic sensitivity for IgM when adding rOspCfl ELISA results to flagellum ELISA results ([4]; second stage of Lyme borreliosis (NB)): 12%
diagnostic sensitivity for IgM ([4]; second stage of Lyme borreliosis): 48%
